Laboratory results: US20200247902A1

Target: bovine submaxillary mucin (BSM) (bovine)
Experiment: ELISA on BSM-coated wells, 0-100 nM antibody; periodate-treated signal subtracted (periodate-sensitive STn binding curve)

B1: SIA01 (antibody, V domains shown)
VH: EVQLVQSGAEVKKPGASVKVSCKASGYTFTDHAIHWVRQAPGQGLEWMGYFSPGNDDIKYNEKFRGRVTMTADKSSSTAYMELRSLRSDDTAVYFCKRSLSTPYWGQGTLVTVSS
VL: DIVMTQSPDSLAVSLGERATINCKSSQSLLNRGNHKNYLTWYQQKPGQPPKLLIYWASTRESGVPDRFSGSGSGTDFTLTISSLQAEDVAVYYCQNDYTYPYTFGQGTKVEIK
EC50: 4.2 nM
